Results reported in the supplement of paper PMC9170038.

System: K4 kissing-loop RNA reporter
Assay: apparent KD of K4 kissing-loop reporter; higher = weaker reporter binding
Conditions: Eterna round: R107
Protocol: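 RNA-MaP round R107: designed RNA switches with theophylline, tryptophan, arginine or FMN aptamers are transcribed on-chip within common flanks. They are titrated with a labelled K4 kissing-loop RNA reporter in RNA-MaP buffer (100 mM Tris pH 7.5, 80 mM KCl, 4 mM MgCl2), without ligand or with the indicated ligand. Median apparent KD per design.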

[1] = input ligand: theophylline 20 uM
[2] = input ligand: tryptophan 2.4 mM
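Further: bound reporter read as fluorescence of individual clusters on recovered sequencing chips by microscopy, with normalized cluster intensities fitted with a binding model.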

Row | Sequence | apparent KD of K4 kissing-loop reporter (input ligand: FMN 200 uM) [µM] | apparent KD of K4 kissing-loop reporter (input ligand: arginine 13.2 mM) [µM] | apparent KD of K4 kissing-loop reporter (input ligand: none) [µM] | apparent KD of K4 kissing-loop reporter [1] [µM] | apparent KD of K4 kissing-loop reporter [2] [µM]
1 | AGCGGCGCGCUGGAUACCAGUGUCCGACGCGUUAGUAUAGAUCCAAAGUGAUGUUUUGGUCACCCUUGGCAGCCACCUCUGUCGG [theeternabot_exclusion_KL_Theo_B_29] | 0.237 | 0.192 | 0.245 | 0.257 | 0.195
2 | AGCUCAGCGUGACUCGAUAAGAGUCACAAACGAGGACCGGUACGGCCGCCACUCGAAAUAAAGGGAGUGAUGUUCUCGCUGAGCA [#SwitchBubble 4 #StaticStem #K4Late] | 0.641 | 0.3 | 0.37 | 0.274 | 0.625
3 | AGCUGCCGAAUAGAUACCAGUGUCUUUAGUGAUGUUUCAGAGCUGGCACGAUCAGAAGGUCACCCUUGGCAGCUAGUGCCAGCGU [theeternabot_exclusion_KL_Theo_B_39] | 0.34 | 0.145 | 0.261 | 0.344 | 0.267
4 | AGCUGUAGCAGAAGGAGCGACAGUUAUUCUGAUAGUACUCUGAGUGAUGUUCAGAACGACUGUCAGGUAGGUCGCUGUUACAGCU [Arg B Ex t8b] | 0.166 | 0.167 | 0.169 | 0.143 | 0.162
5 | AGGAGCGUGGGAUGUAAAUCGCACGCUCCUCGAGGACCGGUACGGCCGCCACUCGCUCGCGCCGAGUGAUGUUCGGCCGGCGAAC [#2 Same State - Tryptophan A Attempt #13 (HarryS)] | 0.243 | 0.325 | 0.225 | 0.209 | 0.446
6 | AGGAUCCACCAGUGAUGUUGGAAAUACAUCAAGGAUAUGACGAAAGUCAGAAGGUGGUAGACUGGACAAAGUCCAGUUGGAUCCA [KL-SSFMN-A18] | 0.135 | 0.0549 | 0.0627 | 0.112 | 0.0664
7 | AGGAUCCGUCGACAAAAGUCGACAAUAACCAAGGAUAUGACGAAAGUCAGAAGGUGGUCUUAUGACCAGUGAUGUUGGUGGAUCC [FmnA 15 #SwitchBubble #K4Late] | 0.891 | 0.245 | 0.5 | 0.197 | 0.243
8 | AGGAUCGAAGAUCCAGCAGUCAAGCAAUACCGAGGACCGGUACGGCCGCCACUCGGAGUGAUGUUCCGAAGACUGCAAAAUAAAA [#SwitchBubble 8] | 0.64 | 1.05 | 0.955 | 0.592 | 0.0862
9 | AGGAUGUAGUGAUGUUAUAUAAGAAGUAAACGAGGACCGGUACGGCCGCCACUCGAAGCGGCUACUAGCGCGCGCGCGCGCGCGC [ExTryptoA.Ca] | 0.298 | 0.345 | 0.263 | 0.336 | 0.259
10 | AGGCACGAGCAAGGAUAUCGAGUAGAGUGAUGUUCUGCCUGGGUUGGCCCGUAAGGGCCUUCCCAGCGAGAAGGUGCUCGUGCCU [#2 Same State - FMN A Attempt #10 (HarryS)] | 0.233 | 0.505 | 0.647 | 0.679 | 0.536
11 | AGGCACGAGCAAGGAUAUCGAGUAGAGUGAUGUUCUGCCUGGGUUGGCUCGCAAGGGCCUUCCCAGCGAGAAGGUGCUCGUGCCU [#2 Same State - FMN A Attempt #17 (HarryS)] | 0.277 | 0.743 | 0.772 | 0.745 | 0.83
12 | AGGGAUGUUAAAGGAUAUAGAAAGUGAUGUUAGAAAGUGAGUGAUGUUGAUGUAAGUGAUGAUAUGUUAGAAGGUUAACAAAACG [abc] | 0.212 | 0.111 | 0.192 | 0.169 | 0.144
13 | AGGGUAAGGCGUUAACAUGACACCUGGGAAGGAGCGCGGUACACCGCAGGUAGGUCGCCCAGUGAUGUUGGGUGUAAGUAUGAGU [KL-XArg-A23] | 0.137 | 0.109 | 0.135 | 0.146 | 0.115
14 | AGGUGAGAGUGAAGGAGCGAUCGCGCCAGUGAUGUUGGUGAGCAUGACGAAAGUCAUGCCGAUCAGGUAGGUCGCACUCUUACUC [Omei KL Arginine B SS B v3] | 0.7 | 0.421 | 0.663 | 0.547 | 0.798
15 | AGGUUUUGAUUAGGAUAUGCACUGAGGAGGAGAAUAUAGUGAUGUUAUAUAAGAGGAAGUAGUAGAGUAGAAGGGAUUGAGGUUU [SSFMNB.S] | 0.208 | 0.167 | 0.224 | 0.21 | 0.158
16 | AGUAAUGUCACGGCCGCCACUCUUUAUUGUUUUUAUAGUUAUAAAUCUUGCCAGUGAUGUUGGUAGAGGACCGGGUGACUUAAUA [#26 K4 Tryptophan B Same State] | 0.222 | 0.208 | 0.245 | 0.199 | 0.194
17 | AGUACGGACACGGCCGCCACUCAGAAGAAGACAGUAGUGAUGUUACUGAUGGUGAGAAUAAUAAAGAGGACCGGGUGUCGUGCAA [#05 K4 Tryptophan B Same State] | 0.27 | 0.191 | 0.286 | 0.23 | 0.171
18 | AGUGAUGUGGGAAGGAGCGGUAUAUGAGUUCAGUGAUGUUGAAGUGAUGCUGUAGUGUUGUGCCAGGUAGGUCGCCUAGAUGUUA [KL-XARG B25] | 0.333 | 0.254 | 0.316 | 0.226 | 0.233
19 | AGUGAUGUUCCUCCUCUUGGUCUUGGUGGGCGAGGACCGGUACGGCCGCCACUCGAUGUGGGAGUGAUGUUUCCAUAUGAUGUUU [Tryptophan A] | 0.568 | 0.58 | 0.621 | 0.675 | 0.401
20 | AGUGAUGUUGAGUUAUGUUAGUGAAGUGAUCGAGGACCGGUACGGCCGCCACUCGAGUGAUGAGUGAGUGAUGUUUGUUUAGUGA [bvbmullin] | 0.639 | 0.487 | 0.857 | 0.692 | 0.404
21 | AGUGAUGUUGUGUGAUGUUAGUGAAGUGAUCGAGGACCGGUACGGCCGCCACUCGAGUGAUGAGUGAGUGAUGUUUGUUUAGUGG [#17 K4 Tryptophan A Same State] | 0.258 | 0.124 | 0.206 | 0.186 | 0.139
